Experimental data reported in the supplement of paper PMC7125110.
± gives the standard error. For some of these results: This sample holds only a part of the variants without activity.

B1: glmS ribozyme (parent)
chain: AUAAAAGCGCCAGAACUACAGAAAUGUAGUUGACGAGGAGGAGGUUUAUCGAAUUUUCGGCGGAUGCCUCCAAA

Columns and labels:
Details in all cases: with glucosamine-6-phosphate
glucosamine-6-phosphate [1] = variants of: B1; experiment: kcat; higher = faster cleavage; RNA array
Summary of the method: (§1)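 kobs was derived by fitting per-tile medians to one- or two-exponential decays after normalising signals to baseline and to non-cleaving reference variants. Those signals came from barcoded ribozyme variants transcribed in situ by E. coli RNA polymerase on sequenced MiSeq chips, followed through a hybridised Cy3 probe at 37 °C and imaged over ~14 h. Glucosamine-6-phosphate (40 μM to 10 mM) in HEPES/KCl/Mg(OAc)2 buffer was flowed in. Weighted Michaelis–Menten fits across concentrations then gave kcat and KM.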

glucosamine-6-phosphate [2] = variants of: B1; experiment: self-cleavage kobs at 640 uM GlcN6P; higher = faster cleavage; RNA array
Summary of the method: as §1

glucosamine-6-phosphate [3] = variants of: B1; experiment: self-cleavage kobs at 2500 uM GlcN6P; higher = faster cleavage; RNA array
Summary of the method: as §1

glucosamine-6-phosphate [4] = variants of: B1; experiment: self-cleavage kobs at 10000 uM GlcN6P; higher = faster cleavage; RNA array
Summary of the method: as §1

glucosamine-6-phosphate [5] = variants of: B1; experiment: KM; higher = weaker cofactor use; RNA array
Summary of the method: as §1

glucosamine-6-phosphate [6] = variants of: B1; experiment: self-cleavage kobs at 40 uM GlcN6P; higher = faster cleavage; RNA array
Summary of the method: as §1

glucosamine-6-phosphate [7] = variants of: B1; experiment: self-cleavage kobs at 160 uM GlcN6P; higher = faster cleavage; RNA array
Summary of the method: as §1

Variant | kcat (glucosamine-6-phosphate [1]) [s⁻¹] | self-cleavage kobs at 640 uM GlcN6P (glucosamine-6-phosphate [2]) [s⁻¹] | self-cleavage kobs at 2500 uM GlcN6P (glucosamine-6-phosphate [3]) [s⁻¹] | self-cleavage kobs at 10000 uM GlcN6P (glucosamine-6-phosphate [4]) [s⁻¹] | KM (glucosamine-6-phosphate [5]) [mM] | self-cleavage kobs at 40 uM GlcN6P (glucosamine-6-phosphate [6]) [s⁻¹] | self-cleavage kobs at 160 uM GlcN6P (glucosamine-6-phosphate [7]) [s⁻¹]
AUAAAAGCGCCAGGACUACAGAAAUGUAGUUGACGAGGAGGAGGUUUAUCGAAUUUUCGGCGGAUGCCUUGAAA [A14G C70U C71G] | 0.000213 ± 6.9e-05 | 0.000185 ± 3.7e-05 | 0.00039 ± 8.8e-05 | 0.000168 ± 3.3e-05 | – | – | –
AUAAAAGCGCCAGGACUACAGAAAUGUAGUUGUCGAGGAGGAGGUUUAUCGAAUUUUCGGCGGAUGCCUCCAAA [A14G A33U] | 0.000136 ± 9.7e-06 | – | 3.08e-05 ± 1e-05 | 7.29e-05 ± 7e-06 | 8.71 ± 1.3 | < 1e-05 | –
AUAAAAGCGCCAGGACUACAGAAAUGUACUUGACGAGGAGGAGGUUUAUCGAAUUAUCGGCGGAUGCCUCCAAA [A14G G29C U56A] | 0.00138 ± 0.00036 | 0.000364 ± 8.4e-05 | 0.000647 ± 0.00014 | 0.00136 ± 0.00029 | 1.96 ± 0.97 | 3.76e-05 ± 1.8e-05 | –
AUAAAAGCGCCAGCACUACAGAAAUGUAGUUGACGAGGAGGAGGUUUAUCGAAUUUUCGGCGGAGGCCUCCAAA [A14C U65G] | 0.00175 ± 0.00025 | 0.000206 ± 5.5e-05 | 0.000717 ± 0.00019 | 0.00117 ± 0.00024 | 4.5 ± 1 | – | –
AUAAAAGCGCCAGCACUACAGAAAUGUAGUUGACGAGGAGGAGGUUUAUCGAAUUUUCGGCGGAGGCCUUCAAA [A14C U65G C70U] | 0.0014 ± 0.00044 | 0.000315 ± 6.8e-05 | 0.000467 ± 6.2e-05 | 0.00104 ± 0.00015 | – | – | 4.59e-05 ± 1.6e-05
AUAAAAGCGCCAGGACUACAGAAAUGUAGUUGACGAGGACGAGGUUUAUCGAAUUUUCGGCGGAUGCCUCCAAA [A14G G40C] | 0.0146 ± 0.0059 | 0.00301 ± 0.00036 | 0.00549 ± 0.00094 | 0.0168 ± 0.0032 | – | 0.000285 ± 5.8e-05 | 0.000739 ± 0.0001
AUAAAAGCGCCAGCACUACAGAAAUGUAGAUGACGAGGAGGAGGUUUAUCGAAUUUUCGGCGGAUGCCUCCAAA [A14C U30A] | 0.00104 ± 0.00011 | 0.000182 ± 3.9e-05 | 0.000568 ± 0.00017 | 0.000813 ± 0.00013 | 2.71 ± 0.48 | – | 6.84e-05 ± 2e-05
AUAAAAGCGCCAGGAGUACAGAAAUGUAGUUGACGAGGAGGAGGUUUAUCGAAUUUUCGGCGGAUGCCUCCAAA [A14G C16G] | 0.0069 ± 0.0022 | 0.00514 ± 0.0008 | 0.00397 ± 0.0011 | 0.00854 ± 0.0016 | – | 0.000569 ± 8.6e-05 | 0.00113 ± 0.00027
AUAAAAGCGCCAGGACUACAGAAAUGUAGUUGACGAGGAGGAGGUUUAUUGAAUUUUCGGCGGAUGCCUCCAAA [A14G C50U] | 0.000229 ± 4.9e-05 | 3.25e-05 ± 1.6e-05 | 5.19e-05 ± 9.6e-06 | 0.000128 ± 1.5e-05 | 7.96 ± 3 | – | –
AUAAAAGCGCCAGGACUACAGAAAUGUAGUUCACGAGGAGGAGGUUUAUCGAAUUUUCGGCGGAUGCCUUCAAA [A14G G32C C70U] | 0.000668 ± 0.00026 | – | 9.2e-05 ± 3.3e-05 | 0.000239 ± 4.4e-05 | – | – | –
AUAAAAGCGCCAGCACUACAGAAAUGUAGUUGACGAGGAGGAGGUUUAUCGAAUUUUCGACGGAUGCCUCCAAA [A14C G60A] | < 1e-05 | < 1e-05 | – | – | – | < 1e-05 | –
AUAAAAGCGCCAGGACUACAGACAUGUAGUUGACGAGGAGGAGGUUUAUCGAAUUUUCGGCGGUUGCCUCCAAA [A14G A23C A64U] | 0.000287 ± 3.5e-05 | 8.79e-05 ± 2.3e-05 | 0.000151 ± 4.3e-05 | 0.00026 ± 5.2e-05 | 1.61 ± 0.46 | – | –
AUAAAAGCGCCAGGACUACAGAAAUGUAGUUGACGAGGAGGAGGUUUAUCGAAUUUUCUGCGGAUGCCUCCAAA [A14G G59U] | 0.000386 ± 9.6e-05 | 1.71e-05 ± 8e-06 | 9.37e-05 ± 1.5e-05 | 0.000196 ± 2.2e-05 | 9.33 ± 3.8 | – | –
AUAAAAGCGCCAGGACUACAGAAAUGUAGUUGACGAGGAGGAGGUUUAUCGAAUUUUCGGAGGAUGCCUCCAAA [A14G C61A] | 1.1e-05 ± 4.8e-06 | – | – | – | – | – | –
AUAAAAGCGCCAGGACUACAGAAAUGUAGUUGACGAGGAGGAGGUUUAUCGAAUUUUCGGCGGUUGCCUCCAAA [A14G A64U] | 0.000311 ± 2.2e-05 | 7.9e-05 ± 1e-05 | 0.000199 ± 2.7e-05 | 0.000257 ± 2.3e-05 | 1.83 ± 0.3 | – | –
AUAAAAGCGCCAGGACUACAGAAAUGUAGUUGACGAGGAGCAGGUUUAUCGAAUUUUCGGCGGAUGCCUCCAAA [A14G G41C] | 0.00141 ± 0.00048 | 0.00022 ± 5.1e-05 | 0.000737 ± 0.00013 | 0.00105 ± 0.00013 | – | 4.74e-05 ± 9.7e-06 | 4.38e-05 ± 1.7e-05
